Laboratory results from paper PMC12278311, “PNUTS:PP1 recruitment to Tox4 regulates chromosomal dispersal in Drosophila germline development” (Cell reports, 2025).
Residue numbers refer to the chain shown, from its start. Numbers in names are those of the source.

What was measured:
Settings in all cases: both partners purified
[1] = biological target: T1, PNUTS N-terminal domain (TND), rat, residues 5-160, C48S (rat, C48S); assay: ITC; Tox4 titrated into PNUTS; Affinity-ITC, 25 °C; 20 mM Tris pH 8.5, 150 mM NaCl, 0.1 mM ZnSO4, 0.5 mM TCEP; one-site model assuming 1:1 stoichiometry; 3 replicates
T1 construct: PP1 nuclear targeting subunit (PNUTS, PPP1R10), rat, residues 5-160; Cloned in pRP1b; His6 tag cleaved with TEV protease; also called PNUTS C48S; PNUTS5-160 C48S; source: E. coli BL21 (DE3), purified (HisTrap, TEV cleavage, Ni-NTA flow-through, SEC)
T1 chain: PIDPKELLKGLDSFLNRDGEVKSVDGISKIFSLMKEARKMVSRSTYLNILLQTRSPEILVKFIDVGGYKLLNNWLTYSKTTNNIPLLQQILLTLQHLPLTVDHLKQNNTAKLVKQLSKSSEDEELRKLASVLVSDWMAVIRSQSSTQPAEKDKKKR

[2] = biological target: T2, PNUTS TND (rat PNUTS 5-160, C48S) (rat, UniProt O55000 5-160, C48S); assay: NMR titration; 2D [1H,15N] HSQC of 15N-labelled PNUTS with zinc-loaded Tox4 at a 1:2 molar ratio; 20 mM MES pH 6, 150 mM NaCl, 5 mM DTT; 298 K
T2 construct: PNUTS (PPP1R10), rat, N-terminal TFIIS domain, residues 5-160; cloned in pRP1b; 15N-labelled for NMR; also called PNUTS N-terminal domain; PNUTS NTD; source: E. coli BL21 (DE3), purified (HisTrap, TEV cleavage, Ni-NTA flow-through, SEC)
T2 sequence (looked up): T1 chain with N16T, S28A, L50I, S55A, I58V, N73S

[3] = biological target: T2, PNUTS TND (rat PNUTS 5-160, C48S); assay: ITC; Tox4 titrated into PNUTS at 25°C; 20 mM Tris pH 8.5, 150 mM NaCl, 0.1 mM ZnSO4, 0.5 mM TCEP; one-site model assuming 1:1

B1: Tox4 C-terminal domain, human, residues 571-621, C601S (domain or fragment)
chain: RCVRSGCENPPIVSKDWDNEYCSNECVVKHSRDVFLAWVASRNSNTVVFVK
notes: TOX4, human, residues 571-621; Cloned in pTHMT (His6-MBP-TEV site); also called TOX4 C601S; Tox4571-621 C601S; source: E. coli BL21 (DE3) with 0.1 mM ZnSO4, purified (HisTrap, TEV cleavage, Ni-NTA and amylose resin, SEC); not shown: His6, N-terminal, cleaved; MBP, N-terminal, cleaved
- Kd [1]: 0.3 ± 0.2 nM

B2: Tox4 CTD (human Tox4 571-621) (domain or fragment, UniProt O94842 571-621, looked up)
chain: B1 chain with S31C
notes: TOX4, human, C-terminal domain, residues 571-621; also called Tox4 C-terminal domain; zinc-loaded Tox4; source: E. coli BL21 (DE3) with 0.1 mM ZnSO4, purified (HisTrap, TEV cleavage, amylose resin, SEC); not shown: His6, N-terminal, cleaved; MBP, N-terminal, cleaved
- binding result [2]: binds

B3: Tox4 CTD (human Tox4 571-621, C601S) (domain or fragment, UniProt O94842 571-621, looked up)
chain: B1 chain
notes: TOX4, human, C-terminal domain, residues 571-621; also called Tox4_(C601S); source: E. coli BL21 (DE3) with 0.1 mM ZnSO4, purified (HisTrap, TEV cleavage, amylose resin, SEC); not shown: His6, N-terminal, cleaved; MBP, N-terminal, cleaved
- Kd [3]: 0.3 nM
